{
  "source": "paper PMC10213050",
  "about": "(Nature Communications, 2023)",
  "binders": {"B1": {"name": "90-nt ssDNA (ssDNA)", "DNA": "CGACAGGTCATGGCCGTACATGATATCCTCGAGCGTCCTGTTGCAACTTACACTCTGAATAGCCGAATTCTTAGGGTTAGGGTTAACA"}},
  "key": {"hRad51;RNF20N": {"biological_target": "hRad51;RNF20N (Homo sapiens;Homo sapiens, UniProt Q06609;Q5VTR2 1-339;1-300, |)", "sequence (Q06609 whole entry, chain 1 of 2)": "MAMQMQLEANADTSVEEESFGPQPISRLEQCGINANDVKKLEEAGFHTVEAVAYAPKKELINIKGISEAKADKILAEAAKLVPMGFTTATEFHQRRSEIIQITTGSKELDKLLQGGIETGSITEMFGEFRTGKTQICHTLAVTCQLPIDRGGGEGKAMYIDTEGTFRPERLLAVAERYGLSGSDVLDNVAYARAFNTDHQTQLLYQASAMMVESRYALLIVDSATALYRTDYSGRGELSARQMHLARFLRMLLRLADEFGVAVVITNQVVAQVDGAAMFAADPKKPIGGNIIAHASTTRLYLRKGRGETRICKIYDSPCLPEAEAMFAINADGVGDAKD", "sequence (Q5VTR2 1-300, chain 2 of 2)": "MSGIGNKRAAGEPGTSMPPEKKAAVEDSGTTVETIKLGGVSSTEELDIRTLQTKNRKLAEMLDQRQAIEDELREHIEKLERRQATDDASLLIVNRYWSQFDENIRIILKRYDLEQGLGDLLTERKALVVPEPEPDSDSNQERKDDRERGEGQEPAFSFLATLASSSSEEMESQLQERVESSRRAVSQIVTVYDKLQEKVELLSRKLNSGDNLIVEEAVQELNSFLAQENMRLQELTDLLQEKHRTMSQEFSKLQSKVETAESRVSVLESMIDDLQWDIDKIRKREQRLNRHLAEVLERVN", "test": "pull-down; ATP; RNF20N stimulates hRad51 binding and is co-captured; Pull-down: 42 mM Tris-HCl pH 7.5, 15 mM KCl, 90 mM NaCl, 2 mM ATP, 1 mM EDTA, 0.5% NP-40, 1 mM DTT, 20 ug/mL BSA, 5% glycerol, 37 C; EMSA: 42 mM MOPS pH 7.2, 3", "details": "protein: recombinant;recombinant; tags: 6xHis or GST-cleaved;GST (pGEX-6p-1); label: 5'-biotin"}, "Srs2": {"biological_target": "Srs2 (Saccharomyces cerevisiae (yeast), UniProt P12954 1-1174)", "sequence (P12954 whole entry)": "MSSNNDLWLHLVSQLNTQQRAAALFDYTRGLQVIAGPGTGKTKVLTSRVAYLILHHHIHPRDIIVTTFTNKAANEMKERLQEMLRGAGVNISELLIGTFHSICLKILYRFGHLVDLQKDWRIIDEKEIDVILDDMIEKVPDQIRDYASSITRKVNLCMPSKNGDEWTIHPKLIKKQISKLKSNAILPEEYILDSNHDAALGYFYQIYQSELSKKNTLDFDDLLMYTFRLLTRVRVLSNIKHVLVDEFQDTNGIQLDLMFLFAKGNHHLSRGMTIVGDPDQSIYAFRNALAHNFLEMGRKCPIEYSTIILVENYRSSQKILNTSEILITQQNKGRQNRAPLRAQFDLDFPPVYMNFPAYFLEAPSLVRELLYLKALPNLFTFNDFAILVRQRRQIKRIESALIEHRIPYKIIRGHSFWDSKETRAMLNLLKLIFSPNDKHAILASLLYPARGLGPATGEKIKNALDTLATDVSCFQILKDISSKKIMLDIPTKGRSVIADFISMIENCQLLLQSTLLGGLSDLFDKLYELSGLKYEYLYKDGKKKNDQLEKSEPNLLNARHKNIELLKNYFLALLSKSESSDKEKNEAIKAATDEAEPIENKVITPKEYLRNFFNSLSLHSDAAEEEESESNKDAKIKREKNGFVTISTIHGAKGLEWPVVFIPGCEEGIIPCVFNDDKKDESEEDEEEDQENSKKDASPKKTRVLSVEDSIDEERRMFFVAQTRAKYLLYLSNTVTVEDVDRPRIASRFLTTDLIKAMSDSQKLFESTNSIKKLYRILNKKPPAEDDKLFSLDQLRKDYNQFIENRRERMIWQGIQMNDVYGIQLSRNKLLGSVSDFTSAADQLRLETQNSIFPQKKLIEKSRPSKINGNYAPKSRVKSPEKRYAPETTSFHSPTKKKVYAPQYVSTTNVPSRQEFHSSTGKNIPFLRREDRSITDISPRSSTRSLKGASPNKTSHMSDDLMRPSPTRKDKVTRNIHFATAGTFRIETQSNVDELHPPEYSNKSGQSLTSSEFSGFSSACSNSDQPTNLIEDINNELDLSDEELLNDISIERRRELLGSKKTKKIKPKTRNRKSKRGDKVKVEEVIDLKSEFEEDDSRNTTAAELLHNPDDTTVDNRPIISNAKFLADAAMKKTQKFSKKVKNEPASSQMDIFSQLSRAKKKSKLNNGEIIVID", "test": "pull-down; 200 nM ssDNA; Pull-down: 42 mM Tris-HCl pH 7.5, 15 mM KCl, 90 mM NaCl, 2 mM ATP, 1 mM EDTA, 0.5% NP-40, 1 mM DTT, 20 ug/mL BSA, 5% glycerol, 37 C; EMSA: 42 mM MOPS pH 7.2, 3", "details": "protein: recombinant; tags: GST (pGEX-6p-1); label: 5'-biotin"}, "Rad51;Bre1": {"biological_target": "Rad51;Bre1 (Saccharomyces cerevisiae …, UniProt P25454;Q07457 1-400;1-700, |)", "sequence (P25454 whole entry, one chain of several)": "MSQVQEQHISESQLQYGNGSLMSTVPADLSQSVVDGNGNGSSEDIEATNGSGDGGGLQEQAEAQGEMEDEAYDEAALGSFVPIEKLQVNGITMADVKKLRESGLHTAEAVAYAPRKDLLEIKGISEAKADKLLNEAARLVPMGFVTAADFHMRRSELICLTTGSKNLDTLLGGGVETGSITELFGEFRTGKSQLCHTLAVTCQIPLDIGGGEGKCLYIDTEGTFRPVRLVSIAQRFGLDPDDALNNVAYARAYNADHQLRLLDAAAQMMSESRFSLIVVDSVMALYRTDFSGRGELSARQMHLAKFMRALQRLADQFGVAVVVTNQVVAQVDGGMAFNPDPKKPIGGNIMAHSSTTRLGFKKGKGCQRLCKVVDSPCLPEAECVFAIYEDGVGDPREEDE", "test": "pull-down; ATP; Bre1 stimulates Rad51 binding and is co-captured; Pull-down: 42 mM Tris-HCl pH 7.5, 15 mM KCl, 90 mM NaCl, 2 mM ATP, 1 mM EDTA, 0.5% NP-40, 1 mM DTT, 20 ug/mL BSA, 5% glycerol, 37 C; EMSA: 42 mM MOPS pH 7.2, 3", "details": "protein: recombinant;recombinant; tags: 6xHis (pET30a) or GST-cleaved;6xHis; label: 5'-biotin"}, "Rad51": {"biological_target": "Rad51 (Saccharomyces cerevisiae (yeast), UniProt P25454 1-400)", "sequence (P25454 whole entry)": "as the sequence (P25454 whole entry, one chain of several) above", "test": "pull-down; ATP; Pull-down: 42 mM Tris-HCl pH 7.5, 15 mM KCl, 90 mM NaCl, 2 mM ATP, 1 mM EDTA, 0.5% NP-40, 1 mM DTT, 20 ug/mL BSA, 5% glycerol, 37 C; EMSA: 42 mM MOPS pH 7.2, 3", "details": "protein: recombinant; tags: 6xHis (pET30a) or GST-cleaved; label: 5'-biotin"}, "hRad51": {"biological_target": "hRad51 (Homo sapiens, UniProt Q06609 1-339)", "sequence (Q06609 whole entry)": "as the sequence (Q06609 whole entry, chain 1 of 2) above", "test": "pull-down; ATP; Pull-down: 42 mM Tris-HCl pH 7.5, 15 mM KCl, 90 mM NaCl, 2 mM ATP, 1 mM EDTA, 0.5% NP-40, 1 mM DTT, 20 ug/mL BSA, 5% glycerol, 37 C; EMSA: 42 mM MOPS pH 7.2, 3", "details": "protein: recombinant; tags: 6xHis or GST-cleaved; chain copies: 10; label: 5'-biotin"}, "Bre1": {"biological_target": "T1, Bre1 (Saccharomyces cerevisiae (yeast), UniProt Q07457 1-700)", "T1 sequence": "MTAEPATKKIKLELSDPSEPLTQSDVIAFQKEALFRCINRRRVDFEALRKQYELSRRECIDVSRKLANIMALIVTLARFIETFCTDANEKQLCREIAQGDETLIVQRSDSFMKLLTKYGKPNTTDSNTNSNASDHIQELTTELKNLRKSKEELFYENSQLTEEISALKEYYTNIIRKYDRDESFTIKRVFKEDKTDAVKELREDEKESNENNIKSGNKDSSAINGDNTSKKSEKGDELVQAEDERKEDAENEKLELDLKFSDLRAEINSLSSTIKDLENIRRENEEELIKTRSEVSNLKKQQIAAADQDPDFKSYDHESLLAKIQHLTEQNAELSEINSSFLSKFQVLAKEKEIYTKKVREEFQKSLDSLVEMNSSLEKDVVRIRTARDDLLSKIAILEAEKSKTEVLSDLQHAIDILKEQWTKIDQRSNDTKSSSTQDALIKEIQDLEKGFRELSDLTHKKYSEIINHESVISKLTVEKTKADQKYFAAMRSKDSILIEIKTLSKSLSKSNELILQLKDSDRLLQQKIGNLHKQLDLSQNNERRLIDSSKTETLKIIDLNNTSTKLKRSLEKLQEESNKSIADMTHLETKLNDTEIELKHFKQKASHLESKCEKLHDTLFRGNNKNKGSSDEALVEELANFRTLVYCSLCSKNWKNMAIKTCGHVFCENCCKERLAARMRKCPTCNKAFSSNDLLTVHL", "test": "pull-down; Bre1 alone; Pull-down: 42 mM Tris-HCl pH 7.5, 15 mM KCl, 90 mM NaCl, 2 mM ATP, 1 mM EDTA, 0.5% NP-40, 1 mM DTT, 20 ug/mL BSA, 5% glycerol, 37 C; EMSA: 42 mM MOPS pH 7.2, 3", "details": "protein: recombinant; tags: 6xHis; label: 5'-biotin"}, "RNF20N": {"biological_target": "RNF20N (Homo sapiens, UniProt Q5VTR2 1-300)", "sequence (Q5VTR2 1-300)": "as the sequence (Q5VTR2 1-300, chain 2 of 2) above", "test": "pull-down; RNF20N alone; Pull-down: 42 mM Tris-HCl pH 7.5, 15 mM KCl, 90 mM NaCl, 2 mM ATP, 1 mM EDTA, 0.5% NP-40, 1 mM DTT, 20 ug/mL BSA, 5% glycerol, 37 C; EMSA: 42 mM MOPS pH 7.2, 3", "details": "protein: recombinant; tags: GST (pGEX-6p-1); label: 5'-biotin"}},
  "data": [
    {"binder": "B1", "values": [
      {"measurement": "binding result", "setting": "hRad51;RNF20N", "value": "binds"},
      {"measurement": "binding result", "setting": "Srs2", "value": "binds"},
      {"measurement": "binding result", "setting": "Rad51;Bre1", "value": "binds"},
      {"measurement": "binding result", "setting": "Rad51", "value": "binds"},
      {"measurement": "binding result", "setting": "hRad51", "value": "binds"},
      {"measurement": "binding result", "setting": "Bre1", "value": "no binding"},
      {"measurement": "binding result", "setting": "RNF20N", "value": "no binding"}
    ]}
  ]
}
